Measured values: patent US20050048070A1 (published 2005)

Key:
[1] = target: T1, bovine serum albumin (bovine, UniProt P02769 25-607); assay: ELISA on coated antigens (data not shown)
T1 construct: Irrelevant antigen in the ELISA; also called BSA

[2] = target: T2, ovalbumin (UniProt P01012 2-386); assay: ELISA on coated antigens (data not shown)
T2 construct: Irrelevant antigen in the ELISA
T2 sequence (looked up): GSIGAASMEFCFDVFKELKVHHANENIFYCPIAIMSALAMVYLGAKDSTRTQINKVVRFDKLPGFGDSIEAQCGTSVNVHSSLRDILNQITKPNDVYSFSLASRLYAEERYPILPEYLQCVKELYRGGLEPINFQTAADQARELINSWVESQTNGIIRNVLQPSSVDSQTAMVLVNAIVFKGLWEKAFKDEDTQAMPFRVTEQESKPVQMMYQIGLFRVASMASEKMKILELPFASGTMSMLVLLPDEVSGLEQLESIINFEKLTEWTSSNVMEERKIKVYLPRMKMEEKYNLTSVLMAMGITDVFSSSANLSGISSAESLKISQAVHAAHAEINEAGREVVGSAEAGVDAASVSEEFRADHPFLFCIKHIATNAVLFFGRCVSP

T1 sequence (P02769 25-607 limits assumed): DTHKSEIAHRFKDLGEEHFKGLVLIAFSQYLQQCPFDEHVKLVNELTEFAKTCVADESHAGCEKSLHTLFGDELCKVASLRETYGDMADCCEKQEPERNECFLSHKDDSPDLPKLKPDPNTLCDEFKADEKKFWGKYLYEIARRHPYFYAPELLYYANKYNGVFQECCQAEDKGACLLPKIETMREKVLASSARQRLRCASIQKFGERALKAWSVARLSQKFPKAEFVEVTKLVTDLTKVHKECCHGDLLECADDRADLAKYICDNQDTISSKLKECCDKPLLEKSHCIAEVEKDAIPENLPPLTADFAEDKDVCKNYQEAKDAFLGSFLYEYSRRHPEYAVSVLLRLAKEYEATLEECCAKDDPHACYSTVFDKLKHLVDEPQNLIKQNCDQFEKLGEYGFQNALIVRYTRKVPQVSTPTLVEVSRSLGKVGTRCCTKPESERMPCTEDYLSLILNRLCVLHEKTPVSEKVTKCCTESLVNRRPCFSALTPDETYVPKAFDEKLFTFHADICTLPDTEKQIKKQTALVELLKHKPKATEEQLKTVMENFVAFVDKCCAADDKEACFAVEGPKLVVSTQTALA

B1: recombinant B9165 Fab (Fab, V domains shown)
VH: GAEVKKPGASVKVSCKASDYTFSSYYMHWVRQAPGQGLEWMGIINPSGGSTSYAQKFQGRVTMTRDTSTNTVYMELSSLRSEDTAVYYCARDQVVVAATLSNYGMDVWGQGTTVTVSS
VL: ELTQSPGTLSLSPGERATLSCRASQSVSSSYLAWYQQKPGQAPRLLIYDASNRATGIPARFSGSGSGTDFTLTISSLEPEDFAVYYCQQGTNWGIAFGQGTRLDIKR
notes: Soluble Fab (mu Fd region plus kappa light chain) cloned from hybridoma B9165 by phage display in pComb3 and expressed in E. coli; also called cloned B9165 Fab; Fab of COU-1
[1]
  binding result: no binding
[2]
  binding result: no binding
